T1: mouse CD28Ig fusion protein (mouse, UniProt P31041 20-149)
T1 construct: Bought from R&D Systems; Ig (Fc) part not given
T1 sequence (looked up): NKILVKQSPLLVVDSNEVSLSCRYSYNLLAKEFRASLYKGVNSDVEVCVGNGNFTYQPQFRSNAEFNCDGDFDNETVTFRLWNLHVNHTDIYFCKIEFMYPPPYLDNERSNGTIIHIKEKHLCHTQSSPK

T2: B7-DCIg (Mus musculus, UniProt Q9WUL5)
T2 construct: Ig fusion protein purchased from R&D systems; also called mouse B7-DCIg fusion protein
T2 sequence (fusion protein, looked up): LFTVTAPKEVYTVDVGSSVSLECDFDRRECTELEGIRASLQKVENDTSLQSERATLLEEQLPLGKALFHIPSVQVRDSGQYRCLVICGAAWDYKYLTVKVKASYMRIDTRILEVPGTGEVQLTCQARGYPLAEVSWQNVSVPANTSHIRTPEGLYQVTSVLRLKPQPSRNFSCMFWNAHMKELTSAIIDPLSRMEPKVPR

T3: PD-1Ig (Mus musculus, UniProt Q02242)
T3 construct: Ig fusion protein purchased from R&D systems; also called mouse PD-1Ig fusion protein
T3 sequence (fusion protein, looked up): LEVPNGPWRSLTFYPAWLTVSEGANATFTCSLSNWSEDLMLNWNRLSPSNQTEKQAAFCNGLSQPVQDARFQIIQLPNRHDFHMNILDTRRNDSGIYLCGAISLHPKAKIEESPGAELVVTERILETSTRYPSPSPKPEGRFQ

T4: B7-H2Ig (Mus musculus, UniProt Q9JHJ8)
T4 construct: Ig fusion protein purchased from R&D systems; also called mouse B7-H2Ig fusion protein
T4 sequence (fusion protein, looked up): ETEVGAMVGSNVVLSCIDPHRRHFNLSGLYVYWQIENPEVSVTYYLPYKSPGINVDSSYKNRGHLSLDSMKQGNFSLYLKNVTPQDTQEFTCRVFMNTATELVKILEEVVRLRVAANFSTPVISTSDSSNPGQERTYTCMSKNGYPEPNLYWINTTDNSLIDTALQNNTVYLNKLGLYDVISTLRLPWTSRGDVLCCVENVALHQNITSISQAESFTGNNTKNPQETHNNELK

T5: ICOSIg (Mus musculus, UniProt Q9WVS0)
T5 construct: Ig fusion protein purchased from R&D systems; also called mouse ICOSIg fusion protein
T5 sequence (fusion protein, looked up): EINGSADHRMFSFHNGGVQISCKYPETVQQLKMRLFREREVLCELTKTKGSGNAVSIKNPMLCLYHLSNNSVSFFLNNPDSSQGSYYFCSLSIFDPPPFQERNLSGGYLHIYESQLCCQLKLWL

T6: human B7-1 (CD80) expressed on 293T cells (human, UniProt P33681 35-288)
T6 construct: whole, on cells
T6 sequence (looked up): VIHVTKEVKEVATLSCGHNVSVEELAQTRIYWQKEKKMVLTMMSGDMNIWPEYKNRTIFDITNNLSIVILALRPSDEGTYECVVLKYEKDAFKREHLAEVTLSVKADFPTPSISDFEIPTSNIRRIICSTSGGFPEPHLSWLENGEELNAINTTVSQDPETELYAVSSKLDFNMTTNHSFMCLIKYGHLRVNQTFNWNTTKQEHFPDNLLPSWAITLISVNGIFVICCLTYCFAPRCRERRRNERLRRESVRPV

T7: human B7-DC expressed on 293T cells (human, UniProt Q9BQ51 20-273)
T7 construct: whole, on cells
T7 sequence (looked up): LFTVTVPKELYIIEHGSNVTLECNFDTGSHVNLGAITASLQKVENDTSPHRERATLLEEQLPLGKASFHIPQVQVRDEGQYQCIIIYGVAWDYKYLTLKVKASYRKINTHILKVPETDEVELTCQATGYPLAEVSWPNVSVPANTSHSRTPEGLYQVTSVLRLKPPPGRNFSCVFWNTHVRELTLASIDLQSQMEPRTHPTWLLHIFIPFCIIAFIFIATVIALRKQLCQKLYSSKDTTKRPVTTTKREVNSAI

T8: human B7-H2, full length, expressed on cells (B7-H2+293T cells) (human, UniProt O75144 19-302)
T8 construct: This id also stands for endogenous B7-H2 on monocyte-derived dendritic cells in the functional rows; also called ICOSL; ICOSLG
T8 sequence: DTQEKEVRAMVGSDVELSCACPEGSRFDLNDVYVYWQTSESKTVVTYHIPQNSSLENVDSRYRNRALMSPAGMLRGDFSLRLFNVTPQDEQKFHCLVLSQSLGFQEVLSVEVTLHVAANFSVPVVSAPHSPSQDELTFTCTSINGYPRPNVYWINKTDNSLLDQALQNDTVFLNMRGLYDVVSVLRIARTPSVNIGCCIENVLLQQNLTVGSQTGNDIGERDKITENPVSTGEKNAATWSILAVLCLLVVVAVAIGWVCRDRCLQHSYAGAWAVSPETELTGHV

T9: human B7-2 (CD86, B70) expressed on 293T cells (human, UniProt P42081 24-329)
T9 construct: whole, on cells
T9 sequence (looked up): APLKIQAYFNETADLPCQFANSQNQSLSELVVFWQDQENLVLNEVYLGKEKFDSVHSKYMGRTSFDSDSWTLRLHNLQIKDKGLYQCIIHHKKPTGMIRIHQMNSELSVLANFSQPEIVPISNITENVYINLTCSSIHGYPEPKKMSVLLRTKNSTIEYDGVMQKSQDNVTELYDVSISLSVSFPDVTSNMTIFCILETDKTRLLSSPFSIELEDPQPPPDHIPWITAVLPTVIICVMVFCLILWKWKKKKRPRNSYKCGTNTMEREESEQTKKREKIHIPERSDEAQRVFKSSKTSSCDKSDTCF


Assays:
[1] = biological target: human B7-H2, full length, expressed on cells (B7-H2+293T cells) (human) (UniProt O75144); assay: cell-based or functional assay
[2] = biological target: T1, mouse CD28Ig fusion protein; assay: CDS well image, 293T cells transfected with the mouse gene, stained with the mouse fusion protein
B7-DCIg = biological target: T2, B7-DCIg; assay: as above
B7-H1Ig = biological target: T10, B7-H1Ig (Mus musculus, UniProt Q9EP73); assay: as above
T10 construct: Ig fusion protein purchased from R&D systems; also called mouse B7-H1Ig fusion protein

[3] = biological target: T11, mouse CTLA-4Ig fusion protein (mouse, UniProt P09793 36-162); assay: as above
T11 construct: Bought from R&D Systems; Ig (Fc) part not given

PD-1Ig = biological target: T3, PD-1Ig; assay: as above
B7-H2Ig = biological target: T4, B7-H2Ig; assay: as above
ICOSIg = biological target: T5, ICOSIg; assay: as above
[4] = biological target: T6, human B7-1 (CD80) expressed on 293T …; assay: CDS well image, 293T cells transfected with the human gene, stained with the human fusion protein
[5] = biological target: T7, human B7-DC expressed on 293T cells; assay: as above
[6] = biological target: T12, human B7-H1 expressed on 293T cells (human, UniProt Q9NZQ7 19-290); assay: as above
T12 construct: whole, on cells

[7] = biological target: T8, human B7-H2, full length, expressed on …; assay: as above
[8] = biological target: T13, human CD28, full length, expressed on cells (CD28+293T cells) (human, UniProt P10747 19-220); assay: as above
T13 construct: This id also stands for CD28 on purified human T cells in the functional rows; also called CD28+ cells

[9] = biological target: T9, human B7-2 (CD86, B70) expressed on …; assay: as above

T10 sequence (Q9EP73 19-238 limits assumed): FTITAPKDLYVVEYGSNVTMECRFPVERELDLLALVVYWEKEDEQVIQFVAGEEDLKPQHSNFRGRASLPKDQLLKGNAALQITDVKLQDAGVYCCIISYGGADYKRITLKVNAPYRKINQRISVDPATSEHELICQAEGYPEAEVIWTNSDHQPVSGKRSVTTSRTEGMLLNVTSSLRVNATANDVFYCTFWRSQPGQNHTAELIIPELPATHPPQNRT
T13 sequence (P10747 19-220): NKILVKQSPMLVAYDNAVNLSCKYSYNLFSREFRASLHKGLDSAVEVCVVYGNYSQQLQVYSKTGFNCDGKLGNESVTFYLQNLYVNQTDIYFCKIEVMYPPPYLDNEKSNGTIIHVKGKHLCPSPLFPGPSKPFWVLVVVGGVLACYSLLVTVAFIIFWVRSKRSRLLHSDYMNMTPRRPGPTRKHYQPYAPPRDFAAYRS
T12 sequence (Q9NZQ7 19-290): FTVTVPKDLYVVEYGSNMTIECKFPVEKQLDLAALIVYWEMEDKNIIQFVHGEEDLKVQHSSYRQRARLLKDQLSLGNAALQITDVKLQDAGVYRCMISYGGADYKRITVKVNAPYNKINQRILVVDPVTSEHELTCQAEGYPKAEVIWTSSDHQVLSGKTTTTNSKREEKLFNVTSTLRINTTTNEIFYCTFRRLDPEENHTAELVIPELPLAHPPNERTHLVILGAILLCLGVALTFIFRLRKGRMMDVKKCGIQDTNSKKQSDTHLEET

Row | Molecule | binding result [2] | binding result (B7-DCIg) | binding result (B7-H1Ig) | binding result [3] | binding result (PD-1Ig) | binding result (B7-H2Ig) | binding result (ICOSIg) | other results
1 | mouse anti-human B7-H2 mAb 9F.8A4 (antibody) | – | – | – | – | – | – | – | tetanus toxoid-elicited IFNγ production of memory T cells; inhibition [1]: > 90%; tetanus toxoid-elicited proliferation of memory T cells; inhibition [1]: > 50%
2 | B7-1 (ligand) VDEQLSKSVKDKVLLPCRYNSPHEDESEDRIYWQKHDKVVLSVIAGKLKVWPEYKNRTLYDNTTYSLIILGLVLSDRGTYSCVVQKKERGTYEVKHLALVKLSIKADFSTPNITESGNPSADTKRITCFASGGFPKPRFSWLENGRELPGINTTISQDPESELYTISSQLDFNTTRNHTIKCLIKYGDAHVSEDFTWEKPPEDPPDSKNTLVLFGAGFGAVITVVVIVVIIKCFCKHRSCFRRNEASRETNNSLTFGPEEALAEQTVFL | binds | no binding | binds | binds | no binding | no binding | no binding | –
3 | B7-2 (ligand) VSVETQAYFNGTAYLPCPFTKAQNISLSELVVFWQDQQKLVLYEHYLGTEKLDSVNAKYLGRTSFDRNNWTLRLHNVQIKDMGSYDCFIQKKPPTGSIILQQTLTELSVIANFSEPEIKLAQNVTGNSGINLTCTSKQGHPKPKKMYFLITNSTNEYGDNMQISQDNVTELFSISNSLSLSFPDGVWHMTVVCVLETESMKISSKPLNFTQEFPSPQTYWKEITASVTVALLLVMLLIIVCHKKPNQPSRPSNTASKLERDSNADRETINLKELEPQIASAKPNAE | binds | no binding | no binding | binds | no binding | no binding | no binding | –
4 | B7-DCIg (Fc fusion, Homo sapiens, UniProt Q9BQ51 20-219, looked up, Ig fusion protein purchased from R&D systems; also called human B7-DCIg fusion protein) fusion protein: LFTVTVPKELYIIEHGSNVTLECNFDTGSHVNLGAITASLQKVENDTSPHRERATLLEEQLPLGKASFHIPQVQVRDEGQYQCIIIYGVAWDYKYLTLKVKASYRKINTHILKVPETDEVELTCQATGYPLAEVSWPNVSVPANTSHSRTPEGLYQVTSVLRLKPPPGRNFSCVFWNTHVRELTLASIDLQSQMEPRTHP | – | – | – | – | – | – | – | binding result [4]: no binding; binding result [5]: no binding; binding result [6]: no binding; binding result [7]: no binding; binding result [8]: no binding; binding result [9]: no binding
5 | B7-DC (ligand, Mus musculus, UniProt Q9WUL5 20-247, looked up) membrane protein: LFTVTAPKEVYTVDVGSSVSLECDFDRRECTELEGIRASLQKVENDTSLQSERATLLEEQLPLGKALFHIPSVQVRDSGQYRCLVICGAAWDYKYLTVKVKASYMRIDTRILEVPGTGEVQLTCQARGYPLAEVSWQNVSVPANTSHIRTPEGLYQVTSVLRLKPQPSRNFSCMFWNAHMKELTSAIIDPLSRMEPKVPRTWPLHVFIPACTIALIFLAIVIIQRKRI | – | – | – | – | – | no binding | – | –

— patent US20120219559A1 (Johns Hopkins, published 2012)
